# Measurements reported in the supplement of paper PMC9732359.
# ± gives the uncertainty stated by the source.
# Test: protein stability index of a GFP-peptide fusion (yeast GPS) (PSI 1-4); higher = more stable; sorted into four equal gates, so the index is relative within each strain
# How it was run: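 Tiled 17-residue peptides from yeast proteins were fused downstream of GFP on a plasmid that also expresses Cherry, and the pooled library was carried in yeast. Mid-log cultures grown in leucine-free medium were sorted into four equal gates by GFP/Cherry fluorescence ratio. Plasmids from each gate were PCR-amplified and Illumina-sequenced, and reads were assigned to strains by barcodes. Each peptide's protein stability index is the sum, over gates, of the gate's read frequency multiplied by its gate number.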
Sequence,protein stability index (doa10∆),protein stability index (pdr5∆),protein stability index (san1∆),protein stability index (ubr1∆)
YLEELQRKKQSDVLRFL [RPL15A],1.38 ± 0.16,2.25 ± 0.21,1.72 ± 0.26,1.5 ± 0.097
SKQPNSAIRKCVRVQLI [RPS23A],2.69 ± 0.078,2.77 ± 0.064,1.79 ± 0.096,2.96 ± 0.045
YDSRGVGEMKLLKKKDD [YLR335W/NUP2],2.51 ± 0.098,2.64 ± 0.17,2.52 ± 0.1,2.6 ± 0.17
VDQGQIYRDRSTFTKHL [ITC1],3.2 ± 0.06,3.33 ± 0.067,3.15 ± 0.042,3.15 ± 0.037
ALRGMFKDRFKDEPVQN [FAS2],3.56 ± 0.087,3.43 ± 0.085,3.35 ± 0.069,3.58 ± 0.11
IHSKSMSVERGIRWELI [RPT1],3.06 ± 0.068,3 ± 0.073,2.88 ± 0.071,3.04 ± 0.063
NVRMDTMANILYYPQKP [RPB2],2.83 ± 0.11,3.23 ± 0.24,3.12 ± 0.1,2.99 ± 0.1
YTEQFQHYKNNSISSQP [SSN2],2.76 ± 0.14,2.95 ± 0.11,3.09 ± 0.15,2.98 ± 0.1
LEPFLLMLEDTDGDSIL [BRR2],2.71 ± 0.071,3.06 ± 0.089,3.05 ± 0.073,3.1 ± 0.05
EEYDDDDDNSNVDYYNV [SNF2],2.89 ± 0.067,2.93 ± 0.063,2.93 ± 0.042,3.06 ± 0.067
KEIYTTLGNQMLSAHNI [YJR042W/NUP85],2.85 ± 0.099,2.82 ± 0.077,3.12 ± 0.079,3.08 ± 0.063
DNLLLNLEQINEDLEDG [REC8],2.81 ± 0.056,2.67 ± 0.066,2.71 ± 0.08,3.07 ± 0.061
ARVILYLKNVLFAFNGV [SIN4],2.38 ± 0.064,1.57 ± 0.06,1.42 ± 0.077,1.38 ± 0.042
RAQHVKKLATRPKCGDC [RPL34A],3.06 ± 0.14,3.06 ± 0.12,2.69 ± 0.11,3.13 ± 0.084
APKWYPSEDVAAPKKTR [RPL6B],2.13 ± 0.093,2.09 ± 0.065,1.87 ± 0.092,1.98 ± 0.1
NYIYAGYENGMLAQWDL [RPN14],2.92 ± 0.13,3.07 ± 0.14,3.06 ± 0.1,3.14 ± 0.078
ELQKSLSLEEVEGHLFE [FAS1],3.16 ± 0.11,3.32 ± 0.16,3.35 ± 0.061,3.08 ± 0.098
DTLLLLPTDGGLTSRLQ [POP4],3.01 ± 0.14,3.06 ± 0.15,3.13 ± 0.095,3.26 ± 0.13
ADNNDLQESINHVMYTE [ECM29],2.66 ± 0.086,3.02 ± 0.096,3.05 ± 0.1,3.02 ± 0.054

Sequence,protein stability index (doa10∆),protein stability index (pdr5∆),protein stability index (san1∆),protein stability index (ubr1∆)
KMYSDDTLKDISTSFCF [BRN1],3.36 ± 0.086,3.33 ± 0.067,3.42 ± 0.039,3.22 ± 0.067
LLSENRSEKSTTNAQTK [SRP54],2.86 ± 0.15,2.84 ± 0.099,2.88 ± 0.09,2.92 ± 0.064
REKYNMKGPAALWDVQF [ARP9],3.49 ± 0.073,3.59 ± 0.08,3.49 ± 0.062,3.45 ± 0.064
KPPTQKTDTKVSFRTHN [SRP21],2.52 ± 0.078,2.82 ± 0.072,2.57 ± 0.07,2.7 ± 0.065
SKDVSRLLSALGPRGVS [SRP21],3.09 ± 0.14,2.54 ± 0.28,,2.83 ± 0.084
NDFANNLPKEGDIVLTR [CSL4],2.89 ± 0.15,3.32 ± 0.17,2.44 ± 0.12,2.97 ± 0.19
IVAKYDPPIIIFINYKQ [PRP28],2.47 ± 0.075,1.77 ± 0.068,1.98 ± 0.12,1.96 ± 0.048
HAERDLALAETLKLRAR [SRP68],2.95 ± 0.15,2.74 ± 0.27,,
EDTNTKPLFDFGKTGDQ [YOR098C/NUP1],1.86 ± 0.25,,,
HELITNIGETAGVVQDI [RPB9],2.82 ± 0.066,2.79 ± 0.054,3.27 ± 0.07,3.22 ± 0.057
GEGPFTVKFKHMDYDGN [YMR129W/POM152],2.79 ± 0.11,2.86 ± 0.068,2.78 ± 0.11,2.78 ± 0.059
YNTRKNAVTAAAANNNI [GAL11],2.19 ± 0.046,2.52 ± 0.044,2.67 ± 0.05,2.46 ± 0.029
FDPVYTTVITVFLEFSL [YML103C/NUP188],1.45 ± 0.043,1.69 ± 0.043,1.8 ± 0.072,1.62 ± 0.023
MSLTTAAPLLALLRENQ [RPN2],2.6 ± 0.19,3.31 ± 0.25,2.8 ± 0.12,3.05 ± 0.08
RSIRGSFTSQGTISIQL [MTR3],2.78 ± 0.067,2.73 ± 0.057,2.77 ± 0.066,2.61 ± 0.041
MFFIKDLSLNITLHPSF [RPB7],,1.97 ± 0.16,,2.24 ± 0.26
ADLMALENATWTMRIEG [SNF12],2.94 ± 0.11,3.05 ± 0.13,3.17 ± 0.12,3.07 ± 0.081
MSLEPTQTVSGTPPMLH [DSN1],2.78 ± 0.14,3 ± 0.12,2.92 ± 0.22,3 ± 0.1
ERVRNFAVIYLCDIDEV [DIB1],1.26 ± 0.13,1.22 ± 0.093,1.04 ± 0.26,1.36 ± 0.088

Sequence,protein stability index (doa10∆),protein stability index (pdr5∆),protein stability index (san1∆),protein stability index (ubr1∆)
RKPILLPDPKPLPLDLN [ITC1],2.34 ± 0.044,2.55 ± 0.045,2.52 ± 0.065,2.14 ± 0.04
STIDANFADKYDEVKKH [RPL8A],2.5 ± 0.12,3.08 ± 0.11,2.92 ± 0.081,2.93 ± 0.1
NDRKQTTVSNDLENSPL [SSN2],2.98 ± 0.079,3.11 ± 0.056,3.13 ± 0.041,3.08 ± 0.038
LQEAIDFAQKEINGDDD [PRE10],2.96 ± 0.087,3 ± 0.079,3.23 ± 0.067,2.96 ± 0.076
INVETVYDIMALEDEER [BRR2],2.99 ± 0.092,2.8 ± 0.081,2.73 ± 0.066,2.79 ± 0.067
SEYSSEASNTPIEHQFN [PRE7],3.16 ± 0.078,3.21 ± 0.072,3 ± 0.036,3.3 ± 0.1
EDSSILQSIVNEISRNG [PCI8],3.13 ± 0.13,2.96 ± 0.1,3 ± 0.054,3.41 ± 0.09
HMAKGLYYGSYRSPRVL [COB],1.6 ± 0.15,1.1 ± 0.12,1.3 ± 0.13,
ELTIIKNPRVTKEYLVQ [CSN9],,3 ± 0.3,3.15 ± 0.11,3.35 ± 0.091
IETEFLLFTVKLKGLMK [IRR1],3.12 ± 0.14,3.06 ± 0.22,2.98 ± 0.12,3.28 ± 0.12
KQNSSSDINQNDDSSSM [YDL088C/ASM4],3.1 ± 0.17,2.94 ± 0.08,2.58 ± 0.088,2.69 ± 0.058
QEASQVTFIFGELKRGN [MED11],2.07 ± 0.062,2.75 ± 0.052,2.75 ± 0.066,2.6 ± 0.043
NVPSTKFNAAPEENATE [SNF12],3.21 ± 0.067,3.35 ± 0.07,3.17 ± 0.058,3.12 ± 0.055
LLTVEEGQLKPGDGSSY [RPC25],3.43 ± 0.15,3.23 ± 0.24,2.83 ± 0.18,3.27 ± 0.14
GTSLKVAPVSEIVNMVP [SIR2],2.24 ± 0.089,2.65 ± 0.089,2.7 ± 0.069,2.37 ± 0.058
LSTSEDVSIEELLREWL [IRR1],3.25 ± 0.16,2.31 ± 0.21,,1.53 ± 0.15
EVEPALLLLQDYVTNPD [RPN1],,1.55 ± 0.11,,1.14 ± 0.17
YIEDGRNPDIYTREFVE [NUT2],3.39 ± 0.066,3.38 ± 0.054,3.13 ± 0.044,3.33 ± 0.04
